1 molecule from paper PMC7227451 (Cellular and Molecular Immunology, 2020) can be followed below.

This test addresses T1, SARS-CoV-2 RBD-hFc (SARS-CoV-2, UniProt P0DTC2).
T1 construct: not shown: Fc (human IgG1), C-terminal, kept
Kind of test: ELISA. To be noted: both partners purified.

B1: 80R (antibody, V domains shown)
VH: EVQLVQSGGGVVQPGKSLRLSCAASGFAFSSYAMHWVRQAPGKGLEWVAVISYDGSNKYYADSVKGRFTISRDNSKNTLYLQMNSLRAEDTAVYYCARDRSYYLDYWGQGTLVTVSS
VL: ETTLTQSPATLSLSPGERATLSCRASQSVRSNLAWYQQKPGQAPRPLIYDASTRATGIPDRFSGSGSGTDFTLTISRLEPEDFAVYYCQQRSNWPPTFGQGTKVEVK
Turning to B1, the binding result is reported as “no binding”.
